In US20190055295A1:

Biological target: human FSH receptor (human) (UniProt P23945)
Assay: cell-based or functional assay

human FSH receptor (human), sequence (P23945 18-695): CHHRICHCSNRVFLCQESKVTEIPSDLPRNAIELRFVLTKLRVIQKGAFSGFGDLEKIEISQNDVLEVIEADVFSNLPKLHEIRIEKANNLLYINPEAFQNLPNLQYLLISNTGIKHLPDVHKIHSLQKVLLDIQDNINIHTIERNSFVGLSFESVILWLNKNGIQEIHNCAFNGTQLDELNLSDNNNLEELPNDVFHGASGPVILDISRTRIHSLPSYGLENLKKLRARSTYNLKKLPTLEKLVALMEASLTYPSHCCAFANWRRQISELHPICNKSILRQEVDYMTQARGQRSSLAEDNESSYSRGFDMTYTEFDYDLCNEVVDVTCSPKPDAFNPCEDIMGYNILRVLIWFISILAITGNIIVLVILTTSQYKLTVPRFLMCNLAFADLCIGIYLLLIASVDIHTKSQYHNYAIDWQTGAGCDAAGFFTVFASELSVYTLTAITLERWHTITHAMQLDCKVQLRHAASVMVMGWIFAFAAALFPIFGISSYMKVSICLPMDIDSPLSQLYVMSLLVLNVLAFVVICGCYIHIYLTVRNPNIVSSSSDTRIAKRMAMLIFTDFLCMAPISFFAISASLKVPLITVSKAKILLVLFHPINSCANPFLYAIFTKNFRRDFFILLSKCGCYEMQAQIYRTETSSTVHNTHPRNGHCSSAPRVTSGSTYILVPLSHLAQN

FSH-Fc/Fc heterodimer (from UniProt P01215 25-116; P0DOX5 223-449) (Fc fusion)
50% effective concentration (EC50) of cAMP production in CHO-FSHR cells: 0.204 nM | in vitro biological activity relative to Gonal-F (cAMP production in CHO-FSHR cells): 50%
